Measured values: patent publication US20190233823 (AEROVIRUS TECHNOLOGIES INC., published 2019)

Biological target: P97 cilium adhesin ectodomain fragment (P97 peptidic complex, SELEX target section 768-925) (Mycoplasma hyopneumoniae)
Assay: ELONA
Settings: tags: His (histidine labelled, Ni-NTA captured)
Protocol: Selected ssDNA molecules from each individual clone were biotinylated using the B-T3 which is same sequence with 5′ primer (T3 primer), and Klenow fragment (2 unit/ml). To prepare single stranded biotin conjugated APT3Cooc10 aptamer for the reverse screening. T3 Primer was Biotin labelled. A 96-well flat bottom ELISA plate was prepared by coating each well with 100 μl of streptavidin (100 μg/ml) diluted in 0.1 M NaHCO₃ following by a 37° C. overnight incubation. Following several washings with PBS, wells were blocked with 200 μl of PBS containing 1% BSA for 2 hours at room temperature and subsequent washing three times with PBS-T (10 mM PBS containing 0.05% (v/v) Tween-20). Thereafter, 100 μl of 2.5 pmole/100 μl biotinylated-ssDNA were added to the wells and incubated at 37° C. for 2 hours followed by washing four times with PBS-T. T3 primer was used as negative control. Following washing, 100 μl of fluid containing 2 μg histidine labelled P97 peptidic complex were added to the indicated wells and incubated at 37° C. for 2 hours. The wells were then washed for 4 times with PBS-T. The reverse screening assay was completed using the DAKO Mycoplasma Hyopneumoniae ELISA tests (K004311-9 kit, Oxoid Ltd, UK).

B1: APT3Cooc3 (ssDNA)
DNA: GCCTGTTGTGAGCCTCCTAACTAGCTCGTAGAAAAAAAATATAGCGTGTGCTGGGACTGCTCGGGATTGCGGACACATGCTTATTCTTGTCTCCC
Does B1 bind?
Result: binds

B2: APT3Cooc10 (ssDNA)
DNA: GCCTGTTGTGAGCCTCCTAACGGGTATGACTACAGATGCAGGGCGGCCTGTAGCCTTGCATTGACAAGGGCATGCTTATTCTTGTCTCCC
Does B2 bind?
Result: binds

B3: APT3Histo1 (ssDNA)
DNA: GCCTGTTGTGAGCCTCCTAACCGCACGTGGGTATTCTAAGTGCGGTAGCTCAATGGTGAGCGATGAGCATCATGCTTATTCTTGTCTCCC
Does B3 bind?
Result: binds
